Positions count from the first letter of the chain named. Numbers in names are those of the source.
T1: LaNAL (Limosilactobacillus antri, UniProt C8P490)
T1 construct: gene FC31_GL000711; N-terminal His-tag (pET-28a), E. coli Rosetta 2; nanA gene printed as 828 bp; homotetramer 140 kDa; EC 4.1.3.3
T1 sequence (C8P490 1-305): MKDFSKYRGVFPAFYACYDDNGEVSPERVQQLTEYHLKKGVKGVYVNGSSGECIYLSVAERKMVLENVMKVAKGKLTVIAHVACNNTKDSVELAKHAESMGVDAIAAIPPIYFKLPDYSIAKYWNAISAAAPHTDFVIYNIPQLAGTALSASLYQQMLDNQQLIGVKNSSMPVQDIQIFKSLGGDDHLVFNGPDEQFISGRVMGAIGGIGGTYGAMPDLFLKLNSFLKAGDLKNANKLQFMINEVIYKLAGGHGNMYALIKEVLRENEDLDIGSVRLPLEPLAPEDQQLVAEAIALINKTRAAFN

T2: LsNAL (Latilactobacillus sakei, UniProt Q38V37)
T2 construct: gene nanA; N-terminal His-tag (pET-28a), E. coli Rosetta 2; nanA gene 918 bp; homotetramer 140 kDa; EC 4.1.3.3
T2 sequence (Q38V37 1-305): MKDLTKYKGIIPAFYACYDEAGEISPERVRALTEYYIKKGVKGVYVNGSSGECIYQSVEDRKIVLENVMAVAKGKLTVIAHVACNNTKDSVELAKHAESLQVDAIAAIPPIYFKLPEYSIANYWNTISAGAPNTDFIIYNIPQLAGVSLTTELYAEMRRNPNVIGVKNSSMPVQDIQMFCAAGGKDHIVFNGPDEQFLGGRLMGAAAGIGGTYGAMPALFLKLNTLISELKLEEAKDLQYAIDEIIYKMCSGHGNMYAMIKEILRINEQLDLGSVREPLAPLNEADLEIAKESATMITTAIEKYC

B1: LaNAL (Limosilactobacillus antri DSM 16041; G210S/Y213G) (protein)
chain: T1 sequence (C8P490 1-305) with G210S, Y213G
notes: N-terminal His-tag (pET-28a), E. coli Rosetta 2; nanA gene printed as 828 bp; homotetramer 140 kDa; EC 4.1.3.3
B2: LaNAL (Limosilactobacillus antri DSM 16041; P193Y) (protein)
chain: T1 sequence (C8P490 1-305) with P193Y
notes: as for B1
B3: LaNAL (Limosilactobacillus antri DSM 16041) (protein)
chain: T1 sequence (C8P490 1-305)
notes: as for B1
B4: LsNAL (Latilactobacillus sakei subsp. sakei 23K) (protein)
chain: T2 sequence (Q38V37 1-305)
notes: N-terminal His-tag (pET-28a), E. coli Rosetta 2; nanA gene 918 bp; homotetramer 140 kDa; EC 4.1.3.3

How the values were obtained:
[1] = target: N-acetylneuraminate lyase from Lactobacillus sakei 23K (Lactobacillus sakei 23K) (UniProt Q38V37); assay: SEC; gel filtration on Superdex200 10/300 GL in 50 mM phosphate buffer pH 7.0 with 0.15 M NaCl; native mass compared with the subunit mass by HPLC/MS/ESI and SDS-PAGE
[2] = target: T1, LaNAL; assay: NAD+-coupled ManNAc dehydrogenase assay, […] nm; type: biochemical
[3] = target: T2, LsNAL; assay: thermal shift, SYPRO Orange; type: binding; conditions: 5 mM sodium pyruvate; several pHs (4-9)
[4] = target: T2, LsNAL; assay: NAD+-coupled ManNAc dehydrogenase assay, […] nm; type: biochemical
[5] = target: N-acetylneuraminate lyase from Lactobacillus antri (Lactobacillus antri) (UniProt C8P490); assay: SEC; gel filtration on Superdex200 10/300 GL in 50 mM phosphate buffer pH 7.0 with 0.15 M NaCl; native mass compared with the subunit mass by HPLC/MS/ESI and SDS-PAGE
[6] = substrate: CC(=O)C(=O)O; assay: Neu5Ac synthesis, HPLC-ELSD; type: biochemical, Limosilactobacillus antri; conditions: co-substrate ManNAc, 20 mM phosphate pH 7.0, 37 C
Text: Neu5Ac synthesis, HPLC-ELSD on LaNAL

[7] = substrate: CC(=O)C(=O)O; assay: Neu5Ac synthesis, HPLC-ELSD; type: biochemical, Latilactobacillus sakei; conditions: co-substrate ManNAc, 20 mM phosphate pH 7.0, 37 C
Text: Neu5Ac synthesis, HPLC-ELSD on LsNAL

| Molecule | Km [6] | kcat [6] | kcat/Km [6] | also measured |
| --- | --- | --- | --- | --- |
| N-acetylneuraminate lyase from Lactobacillus sakei 23K (from UniProt Q38V37 1-305) (enzyme) | – | – | – | stoichiometry N [1]: 4 |
| CC(=O)C(=O)O [pyruvate] | – | – | – | Ki [2]: 160 µM; Tm [3]: protective effect was more evident at basic pHs; Ki [4]: 400 µM |
| N-acetylneuraminate lyase from Lactobacillus antri (from UniProt C8P490 1-305) (enzyme) | – | – | – | stoichiometry N [5]: 4 |
| B1 | 4300 ± 2000 µM | 3 ± 0.3 s⁻¹ | 710 M⁻¹ s⁻¹ | – |
| B2 | 500 ± 10 µM | 0.99 ± 0.03 s⁻¹ | 1980 M⁻¹ s⁻¹ | – |
| B3 | 1100 ± 200 µM | 5.6 ± 0.1 s⁻¹ | 5100 M⁻¹ s⁻¹ | – |
| B4 | – | – | – | Km [7]: 12500 ± 200 µM; kcat [7]: 3.9 ± 0.1 s⁻¹; kcat/Km [7]: 310 M⁻¹ s⁻¹ |

From publication PMC4016182, “First Functional and Mutational Analysis of Group 3 N-Acetylneuraminate Lyases from Lactobacillus antri and Lactobacillus sakei 23K” (PLoS ONE, 2014)
